Changes are numbered by the printed parent chain. Where two headings read alike, the source gives them in different places.
B1: TPP-14293 hIgG1 (antibody, V domains shown)
VH: EVQLLESGGGLVQPGGSLRLSCAASGFTFDDYAMSWVRQAPGKGLEWVSAIGTGGGTYYADSVKGRFTISRDNSKNTLYLQMNSLRAEDTAVYYCDREYYDSSGYYHLDYWGQGTLVTVSS
VL: QSVLTQPPSASGTPGQRVTISCTGSSSNIGATYDVHWYQQLPGTAPKLLIYSNNQRPSGVPDRFSGSKSGTSASLAISGLRSEDEADYYCAAWDWSLSGWVFGGGTKLTVLG
B2: TPP-14298 hIgG1 (antibody, V domains shown)
VH: B1 VH with D96A, R97S
VL: B1 VL

Columns and labels:
[1] = target: T1, human alpha2-Antiplasmin (human, UniProt P08697 40-491); assay: cell-based or functional assay
T1 sequence: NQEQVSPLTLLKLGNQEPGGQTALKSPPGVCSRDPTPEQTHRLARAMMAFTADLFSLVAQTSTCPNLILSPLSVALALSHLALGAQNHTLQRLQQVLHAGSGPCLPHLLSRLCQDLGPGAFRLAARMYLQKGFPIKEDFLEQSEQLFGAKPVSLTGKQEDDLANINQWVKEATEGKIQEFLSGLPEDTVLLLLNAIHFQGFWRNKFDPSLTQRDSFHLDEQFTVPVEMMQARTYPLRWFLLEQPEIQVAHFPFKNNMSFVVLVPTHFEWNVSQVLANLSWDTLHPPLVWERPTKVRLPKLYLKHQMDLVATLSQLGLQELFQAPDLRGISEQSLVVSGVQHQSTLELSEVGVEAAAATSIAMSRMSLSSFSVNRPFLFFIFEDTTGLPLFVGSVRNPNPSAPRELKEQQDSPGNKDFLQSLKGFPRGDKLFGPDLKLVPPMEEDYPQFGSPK

[2] = target: human Plasmin (human, UniProt P00747 97-580; P00747 581-810, limits assumed); assay: cell-based or functional assay
[3] = target: T1, human alpha2-Antiplasmin; assay: ELISA, coated antigen, 1st exp.
Method: (§1) A standard ELISA format was used for analyzing the binding affinity of Fabs of this invention to human and rabbit alpha-2-Antiplasmin, respectively. Antigens were coated to black 384 well Maxisorp microtiter plates (Nunc; catalogue number 460518), diluted to a concentration of 1 μg/ml in 1× Coating Buffer (Candor Bioscience; catalogue number 121125). Plates were incubated overnight at 4° C. After overnight incubation, plates were washed 2× with 50 μl/well using PBS+0.05% Tween 20. Following this, 50 μl/well of blocking buffer (Smart Block; Candor Bioscience; catalogue number 113500) was added and the plates were incubated for 1 hour at room temperature. Afterwards, plates were washed for 3× using […] PBS+0.05% Tween 20 buffer. Fabs of this invention were added at different concentrations in a final volume of 30 μl/well. Plates were incubated for 1 hour at room temperature. Following this incubation step, plates were washed for 3× using 50 μl/well of a PBS+0.05% Tween 20 buffer. For the detection of bound Fabs and full-length antibodies, the anti-Human Lambda Light Chains (Bound and Free)—Peroxidase antibody (Sigma; catalogue number A5175) was diluted by the factor of 1:10.000 in 10% Blocking Buffer. 30 μl/well of this diluted detection antibody was added and plates are incubated for 1 hour at room temperature. Following this incubation step, plates were washed for 3× using 50 μl/well of a PBS+0.05% Tween 20 buffer. As substrate, a mixture of 30 μl/well of 1:1000 diluted Amplex red (Invitrogen; catalogue number 12222; stock solution 10 mM in DMSO) and 1:10.000 of Hydrogen peroxide (Merck; catalogue number 107209; 30% stock solution) was added and the plates incubated for minutes in the dark.
(§2) For measurement, the Infinite f500 reader (Tecan) was used. Measurement mode: Fluorescence; Top reading; Ex 535 nm; Em 590 nm.
(§3) According to the methods described in Example 3 and Example 4, antibodies TPP-14323, TPP-14318, TPP-14314, TPP-14313, TPP-14308, TPP-14305, TPP-14303, TPP-14298, and TPP-14293 were tested for their ability to bind to and to block the activity of human alpha2-Antiplasmin in a dose-dependent manner. For each antibody, one dose response curve from two to three independent experiments performed in quadruplicate is shown as example in FIG. 7.1 to FIG. 7.18. (see Table 3.3)

[4] = target: T1, human alpha2-Antiplasmin; assay: ELISA, coated antigen, 2nd exp.
Method: as §1, §2, §3

[5] = target: T1, human alpha2-Antiplasmin; assay: ELISA, coated antigen, 3rd exp.
Method: as §1, §2, §3

[6] = target: T1, human alpha2-Antiplasmin; assay: cell-based or functional assay; remark: listed apart in the source
[7] = target: T1, human alpha2-Antiplasmin; assay: cell-based or functional assay; remark: listed apart in the source
[8] = target: T1, human alpha2-Antiplasmin; assay: ELISA, coated antigen, 1st exp.; 1st exp.
Method: as §1, with “30 μl/well of this diluted detection antibody was added and plates are incubated for 1 hour at room temperature. Following this incubation step, plates were washed for 3× using 50 μl/well of a PBS+0.05% Tween 20 buffer. As substrate, a mixture of 30 μl/well of 1:1000 diluted Amplex red (Invitrogen; catalogue number 12222; stock solution 10 mM in DMSO) and 1:10.000 of Hydrogen peroxide (Merck; catalogue number 107209; 30% stock solution) was added and the plates incubated for minutes in the dark.” left out
For measurement, the Infinite f500 reader (Tecan) was used. Measurement mode: Fluorescence; Top reading; Ex 535 nm; Em 590 nm. […]

Sequence of human Plasmin (P00747 97-580 limits assumed, chain 1 of 2): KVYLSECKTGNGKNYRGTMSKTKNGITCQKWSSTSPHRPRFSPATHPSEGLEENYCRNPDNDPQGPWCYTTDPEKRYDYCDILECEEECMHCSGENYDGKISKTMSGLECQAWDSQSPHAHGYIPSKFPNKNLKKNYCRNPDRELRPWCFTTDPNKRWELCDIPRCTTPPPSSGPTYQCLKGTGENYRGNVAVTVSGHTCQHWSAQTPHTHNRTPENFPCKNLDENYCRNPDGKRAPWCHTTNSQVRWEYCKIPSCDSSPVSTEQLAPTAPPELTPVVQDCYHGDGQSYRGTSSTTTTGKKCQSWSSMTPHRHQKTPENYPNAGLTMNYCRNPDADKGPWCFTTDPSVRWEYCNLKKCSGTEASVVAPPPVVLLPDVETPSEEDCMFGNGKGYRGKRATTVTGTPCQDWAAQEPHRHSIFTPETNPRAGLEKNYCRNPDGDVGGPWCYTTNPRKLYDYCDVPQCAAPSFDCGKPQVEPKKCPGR
Sequence of human Plasmin (P00747 581-810 limits assumed, chain 2 of 2): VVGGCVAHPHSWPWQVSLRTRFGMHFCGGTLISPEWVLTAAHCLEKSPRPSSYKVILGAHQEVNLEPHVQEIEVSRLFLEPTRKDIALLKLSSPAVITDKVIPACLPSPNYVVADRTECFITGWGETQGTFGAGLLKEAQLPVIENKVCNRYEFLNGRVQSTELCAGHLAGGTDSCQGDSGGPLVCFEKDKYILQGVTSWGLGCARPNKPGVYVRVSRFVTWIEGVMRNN

| Binder | function blocking activity [IC50 M], 1st exp. [1] [nM] | function blocking activity [IC50 M], 2nd exp. [1] [nM] | function blocking activity [IC50 M], 3rd exp. [1] [nM] | IC50 [M], inhibition of plasmin proteolytic activity [2] [M] | EC50 [3] [nM] | EC50 [4] [nM] | EC50 [5] [nM] | EC50 (read off the curve); function blocking assay (Example 4), RFU of plasmin substrate cleavage [6] [nM] | EC50 (read off the curve); function blocking assay (Example 4), RFU of plasmin substrate cleavage [7] [nM] | EC50 [8] [nM] |
| --- | --- | --- | --- | --- | --- | --- | --- | --- | --- | --- |
| B1 | 46 | 48 | 50 | > 5e-06 | 12 | 12 | 12 | ~50 | – | – |
| B2 | 31 | 37 | 40 | > 5e-06 | – | 62 | 58 | – | ~30 | 5.7 |

From patent publication US20240010750A1 (Bayer, published 2024)
